Source: patent US20090209615A1, “INHIBITORS OF MATRIX METALLOPROTEINASES TO TREAT NEUROLOGICAL DISORDERS” (priority 2004, published 2009)

Assay: Stability of S-nitrosothiols (NAT conversion from DAN)
Details: within 15 min of incubation

B1: S-nitroso-MMP-9: S-nitrosylation product of SNOC-treated R-proMMP-9 (protein, UniProt P14780 20-707, looked up)
pro-form: APRQRQSTLVLFPGDLRTNLTDRQLAEEYLYRYGYTRVAEMRGESKSLGPALLLLQKQLSLPETGELDSATLKAMRTPRCGVPDLGRFQTFEGDLKWHHHNITYWIQNYSEDLPRAVIDDAFARAFALWSAVTPLTFTRVYSRDADIVIQFGVAEHGDGYPFDGKDGLLAHAFPPGPGIQGDAHFDDDELWSLGKGVVVPTRFGNADGAACHFPFIFEGRSYSACTTDGRSDGLPWCSTTANYDTDDRFGFCPSERLYTQDGNADGKPCQFPFIFQGQSYSACTTDGRSDGYRWCATTANYDRDKLFGFCPTRADSTVMGGNSAGELCVFPFTFLGKEYSTCTSEGRGDGRLWCATTSNFDSDKKWGFCPDQGYSLFLVAAHEFGHALGLDHSSVPEALMYPMYRFTEGPPLHKDDVNGIRHLYGPRPEPEPRPPTTTTPQPTAPPTVCPTGPPTVHPSERPTAGPTGPPSAGPTGPPTAGPSTATTVPLSPVDDACNVNIFDAIAEIGNQLYLFKDGKYWRFSEGRGSRPQGPFLIADKWPALPRKLDSVFEERLSKKLFFFSGRQVWVYTGASVLGPRRLDKLGLGADVAQVTGALRSGRGKMLLFSGRRLWRFDVKAQMVDPRSASEVDRMFPGVPLDTHDVFQYREKAYFCQDRFYWRVSSRSELNQVDQVGYVTYDILQCPED
modifications: pro-form S-nitrosylated
For B1, which remained is on record?
Its remained is “over 80%”.
